Laboratory results taken from US20110104152A1 (Genentech, published 2011).

Key:
[1] = molecular target: human FGFR4 polypeptide expressed in transfected rat L6 myoblasts (human, UniProt P22455 22-802); assay: cell-based or functional assay
[2] = molecular target: human FGFR1c polypeptide expressed in transfected rat L6 myoblasts (human, UniProt P11362 22-822); assay: cell-based or functional assay
[3] = molecular target: T1, FGFR4-Fc (recombinant polypeptide comprising a human FGFR4 extracellular domain fused to a human IgG1 Fc … (human, UniProt P22455 22-369)); assay: ELISA, FGFR-Fc captured by anti-human IgG-Fc antibody, 2 µg/mL heparin, no Klotho-beta
T1 construct: extracellular domain; Bought reagent; also called FGFR4 fused to Fc fragment; catalog no; 685-FR-050, R&D Systems; not shown: human IgG1 Fc fragment
T1 sequence (looked up): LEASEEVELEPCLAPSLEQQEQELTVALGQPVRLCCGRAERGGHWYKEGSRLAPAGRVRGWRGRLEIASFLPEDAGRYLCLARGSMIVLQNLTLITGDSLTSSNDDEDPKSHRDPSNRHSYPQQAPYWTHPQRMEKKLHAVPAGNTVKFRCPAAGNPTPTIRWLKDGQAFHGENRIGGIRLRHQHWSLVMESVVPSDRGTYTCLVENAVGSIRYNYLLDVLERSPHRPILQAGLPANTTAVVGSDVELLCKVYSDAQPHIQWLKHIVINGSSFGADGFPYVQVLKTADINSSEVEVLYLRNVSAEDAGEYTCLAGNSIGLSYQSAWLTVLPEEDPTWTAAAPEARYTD
Procedure: Monoclonal antibodies specific for human IgG-Fc fragment (Jackson ImmunoResearch, West Grove, Pa., USA) were immobilized in the wells of Maxisorp™ flat-bottom 96-well plates (Nunc, Thermo Fisher Scientific, Rochester, N.Y.) by overnight incubation with 100 μl per well of 2 μg/ml antibody solution. Each well was then incubated with either 1 μg/ml of FGFR4—Fc (a recombinant polypeptide comprising a human FGFR4 extracellular domain fused to a human IgG₁ Fc fragment; catalog no. 685-FR-050, R&D Systems, Inc., Minneapolis, Minn.) or 1 μg/ml FGFR1c-Fc (a recombinant polypeptide comprising a human FGFR1c extracellular domain fused to a human IgG₁ Fc fragment; catalog no. 658-FR-050, R&D Systems).
The surface-immobilized FGFR4-Fc or FGFR1c-Fc polypeptides were incubated for 1 hr with native human FGF19-Flag polypeptide with a C-terminal epitope tag (See FGF19-Flag in Table 10, SEQ ID NO:237) at concentrations of 1 μg/mL, 0.4 μg/mL, 0.16 μg/mL, 0.064 μg/mL, 0.0256 μg/mL, 0.004096 μg/mL or 0.0016384 μg/mL, each with 2 μg/mL heparin, to allow binding of the FGF19 polypeptide to the receptor domain. […]

human FGFR1c polypeptide expressed in transfected rat L6 myoblasts, sequence (P11362 22-822): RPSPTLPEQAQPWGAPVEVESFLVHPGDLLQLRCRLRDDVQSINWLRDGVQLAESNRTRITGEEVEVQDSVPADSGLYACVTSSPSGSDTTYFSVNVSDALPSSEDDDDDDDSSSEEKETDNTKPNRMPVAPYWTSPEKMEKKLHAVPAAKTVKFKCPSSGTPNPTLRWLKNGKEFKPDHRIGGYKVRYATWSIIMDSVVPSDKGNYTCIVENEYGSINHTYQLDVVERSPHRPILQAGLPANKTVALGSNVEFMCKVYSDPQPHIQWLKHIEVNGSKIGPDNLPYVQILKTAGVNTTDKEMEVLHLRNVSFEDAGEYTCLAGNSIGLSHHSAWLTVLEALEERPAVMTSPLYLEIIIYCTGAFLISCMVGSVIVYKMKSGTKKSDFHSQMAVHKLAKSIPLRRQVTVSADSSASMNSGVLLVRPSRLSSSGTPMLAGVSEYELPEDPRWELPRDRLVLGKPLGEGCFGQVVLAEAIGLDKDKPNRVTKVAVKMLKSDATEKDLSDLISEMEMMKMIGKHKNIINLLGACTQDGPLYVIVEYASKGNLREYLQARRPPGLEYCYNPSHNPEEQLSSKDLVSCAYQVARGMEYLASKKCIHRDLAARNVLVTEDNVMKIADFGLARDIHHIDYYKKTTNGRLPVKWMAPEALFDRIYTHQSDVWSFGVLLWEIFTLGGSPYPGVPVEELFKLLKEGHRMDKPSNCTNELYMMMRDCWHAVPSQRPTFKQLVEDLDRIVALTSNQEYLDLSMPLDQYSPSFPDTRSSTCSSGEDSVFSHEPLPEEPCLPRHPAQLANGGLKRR

EC50 of dose-dependent activation of luciferase (GAL4-Elk1 reporter), L6 cells with FGFR4 and KLB [1]: 0.269 µg/mL
EC50 of dose-dependent activation of luciferase (GAL4-Elk1 reporter), L6 cells with KLB and FGFR1c [2]: 0.0227 µg/mL
B1: chimeric FGF19 polypeptide cFGF21/19-2/Flag (ligand)
chain: HPIPDSSPLLQFGGQVRQRYLYTSGPHGLSSCFLRIRADGVVDCARGQSAHSLLEIKAVALRTVAIKGVHSVRYLCMGADGKMQGLLQYSEEDCAFEEEIRPDGYNVYRSEKHRLPVSLSSAKQRQLYKNRGFLPLSHFLPMLPMVPEEPEDLRGHLESDMFSSPLETDSMDPFGLVTGLEAVRSPSFEKDYKDDDDK
notes: also called chimeric FGF19-Flag polypeptide; FGF19v
binding result [3]: no binding (tested: 1 µg/mL (highest concentration tested))
